Among the data in US20160024487 are FXa kcat/KM values, retold here.

Data set [1] has as its target T1, Lys(Dnp)-ATNATFGPRIVGG-Lys(Abz).
T1 chain: KATNATFGPRIVGGK

In data set [2] the target is T2, Lys(Dnp)-ATNATVQPRIVGG-Lys(Abz).
T2 chain: KATNATVQPRIVGGK

Data set [3] has as its target T3, Lys(Dnp)-ATNATVSPRIVGG-Lys(Abz).
T3 chain: KATNATVSPRIVGGK

Data set [4] concerns the target T4, Lys(Dnp)-ATNATLMPRIVGG-Lys(Abz).
T4 chain: KATNATLMPRIVGGK

Data set [5] deals with T5, Lys(Dnp)-ATNATMFPRIVGG-Lys(Abz).
T5 chain: KATNATMFPRIVGGK

For data set [6], the target named is T6, Lys(Dnp)-ATNATWHPRIVGG-Lys(Abz).
T6 chain: KATNATWHPRIVGGK

For data set [7], the target named is T7, Lys(Dnp)-ATNATITPRIVGG-Lys(Abz).
T7 chain: KATNATITPRIVGGK

Data set [8] deals with T8, Lys(Dnp)-ATNATMYPRIVGG-Lys(Abz).
T8 chain: KATNATMYPRIVGGK

For data set [9], the target named is T9, Lys(Dnp)-ATNATIMPRIVGG-Lys(Abz).
T9 chain: KATNATIMPRIVGGK

In data set [10] the target is T10, Lys(Dnp)-ATNATMKPRIVGG-Lys(Abz).
T10 chain: KATNATMKPRIVGGK

The target of data set [11] is T11, Lys(Dnp)-ATNATMTPRIVGG-Lys(Abz).
T11 chain: KATNATMTPRIVGGK

Data set [12] has as its target T12, Lys(Dnp)-ATNATMDPRIVGG-Lys(Abz).
T12 chain: KATNATMDPRIVGGK

Data set [13] has as its target T13, Lys(Dnp)-ATNATADPRIVGG-Lys(Abz).
T13 chain: KATNATADPRIVGGK

Data set [14] deals with T14, Lys(Dnp)-ATNATYRPRIVGG-Lys(Abz).
T14 chain: KATNATYRPRIVGGK

Data set [15] has as its target T15, Lys(Dnp)-ATNATALPRIVGG-Lys(Abz).
T15 chain: KATNATALPRIVGGK

The target of data set [16] is T16, Lys(Dnp)-ATNATTYPRIVGG-Lys(Abz).
T16 chain: KATNATTYPRIVGGK

For data set [17], the target named is T17, Lys(Dnp)-ATNATQYPRIVGG-Lys(Abz).
T17 chain: KATNATQYPRIVGGK

For data set [18], the target named is T18, Lys(Dnp)-ATNATFIPRIVGG-Lys(Abz).
T18 chain: KATNATFIPRIVGGK

Data set [19] deals with T19, Lys(Dnp)-ATNATKMPRIVGG-Lys(Abz).
T19 chain: KATNATKMPRIVGGK

Data set [20] addresses T20, Lys(Dnp)-ATNATRHPRIVGG-Lys(Abz).
T20 chain: KATNATRHPRIVGGK

Data set [21] has as its target T21, Lys(Dnp)-ATNATPMPRIVGG-Lys(Abz).
T21 chain: KATNATPMPRIVGGK

The target in data set [22] is T22, Lys(Dnp)-ATNATVPPRIVGG-Lys(Abz).
T22 chain: KATNATVPPRIVGGK

The target in data set [23] is T23, Lys(Dnp)-ATNATYFPRIVGG-Lys(Abz).
T23 chain: KATNATYFPRIVGGK

For data set [24], the target named is T24, Lys(Dnp)-ATNATEMPRIVGG-Lys(Abz).
T24 chain: KATNATEMPRIVGGK

The target in data set [25] is T25, Lys(Dnp)-ATNATHEPRIVGG-Lys(Abz).
T25 chain: KATNATHEPRIVGGK

In data set [26] the target is T26, Lys(Dnp)-ATNATPGPRIVGG-Lys(Abz).
T26 chain: KATNATPGPRIVGGK

The target in data set [27] is T27, Lys(Dnp)-ATNATTLPRIVGG-Lys(Abz).
T27 chain: KATNATTLPRIVGGK

Data set [28] has as its target T28, Lys(Dnp)-ATNATREPRIVGG-Lys(Abz).
T28 chain: KATNATREPRIVGGK

Data set [29] has as its target T29, Lys(Dnp)-ATNATTDPRIVGG-Lys(Abz).
T29 chain: KATNATTDPRIVGGK

In data set [30] the target is T30, Lys(Dnp)-ATNATTHPRIVGG-Lys(Abz).
T30 chain: KATNATTHPRIVGGK

Data set [31] concerns the target T31, Lys(Dnp)-ATNATMNPRIVGG-Lys(Abz).
T31 chain: KATNATMNPRIVGGK

The target in data set [32] is T32, Lys(Dnp)-ATNATGDPRIVGG-Lys(Abz).
T32 chain: KATNATGDPRIVGGK

Data set [33] addresses T33, Lys(Dnp)-ATNATAHPRIVGG-Lys(Abz).
T33 chain: KATNATAHPRIVGGK

Data set [34] addresses T34, Lys(Dnp)-ATNATRFPRIVGG-Lys(Abz).
T34 chain: KATNATRFPRIVGGK

Data set [35] deals with T35, Lys(Dnp)-ATNATVNPRIVGG-Lys(Abz).
T35 chain: KATNATVNPRIVGGK

For data set [36], the target named is T36, Lys(Dnp)-ATNATKYPRIVGG-Lys(Abz).
T36 chain: KATNATKYPRIVGGK

Data set [37] concerns the target T37, Lys(Dnp)-ATNATQAPRIVGG-Lys(Abz).
T37 chain: KATNATQAPRIVGGK

For data set [38], the target named is T38, Lys(Dnp)-ATNATQGPRIVGG-Lys(Abz).
T38 chain: KATNATQGPRIVGGK

Data set [39] addresses T39, Lys(Dnp)-ATNATAMPRIVGG-Lys(Abz).
T39 chain: KATNATAMPRIVGGK

In data set [40] the target is T40, Lys(Dnp)-ATNATRAPRIVGG-Lys(Abz).
T40 chain: KATNATRAPRIVGGK

Data set [41] concerns the target T41, Lys(Dnp)-ATNATNIPRIVGG-Lys(Abz).
T41 chain: KATNATNIPRIVGGK

B1: Human plasma purified Factor Xa (protein)
chain 1: ANSFLEEMKKGHLERECMEETCSYEEAREVFEDSDKTNEFWNKYKDGDQCETSPCQNQGKCKDGLGEYTCTCLEGFEGKNCELFTRKLCSLDNGDCDQFCHEEQNSVVCSCARGYTLADNGKACIPTGPYPCGKQTLER
chain 2: IVGGQECKDGECPWQALLINEENEGFCGGTILSEFYILTAAHCLYQAKRFKVRVGDRNTEQEEGGEAVHEVEVVIKHNRFTKETYDFDIAVLRLKTPITFRMNVAPACLPERDWAESTLMTQKTGIVSGFGRTHEKGRQSTRLKMLEVPYVDRNSCKLSSSFIITQNMFCAGYDTKQEDACQGDSGGPHVTRFKDTYFVTGIVSWGEGCARKGKYGIYTKVTAFLKWIDRSMKTRGLPKAKSHAPEVITSSPLK
Consider B1, for which the FXa kcat/KM in data set [1] is 100 M⁻¹ s⁻¹; in data set [2] it was 250 M⁻¹ s⁻¹; in [3], 88 M⁻¹ s⁻¹; in data set [4], 2700 M⁻¹ s⁻¹; in data set [5], 55 M⁻¹ s⁻¹; in [6] it was 42 M⁻¹ s⁻¹. The FXa kcat/KM amounted to 840 M⁻¹ s⁻¹ in data set [7]; 110 M⁻¹ s⁻¹ in [8]; 2100 M⁻¹ s⁻¹ in [9]; 72 M⁻¹ s⁻¹ in [10]; 97 M⁻¹ s⁻¹ in data set [11].

B2: Human plasma purified Factor Xa (Molecular Innovations, Inc) (protein)
chain 1: ANSFLEEMKKGHLERECMEETCSYEEAREVFEDSDKTNEFWNKYKDGDQCETSPCQNQGKCKDGLGEYTCTCLEGFEGKNCELFTRKLCSLDNGDCDQFCHEEQNSVVCSCARGYTLADNGKACIPTGPYPCGKQTLER
chain 2: IVGGQECKDGECPWQALLINEENEGFCGGTILSEFYILTAAHCLYQAKRFKVRVGDRNTEQEEGGEAVHEVEVVIKHNRFTKETYDFDIAVLRLKTPITFRMNVAPACLPERDWAESTLMTQKTGIVSGFGRTHEKGRQSTRLKMLEVPYVDRNSCKLSSSFIITQNMFCAGYDTKQEDACQGDSGGPHVTRFKDTYFVTGIVSWGEGCARKGKYGIYTKVTAFLKWIDRSMKTRGLPKAKSHAPEVITSSPLK
As to B2, the FXa kcat/KM in data set [12] amounted to 500 M⁻¹ s⁻¹; in data set [13] it was 56 M⁻¹ s⁻¹; in data set [14] it was 610 M⁻¹ s⁻¹; in data set [15], 300 M⁻¹ s⁻¹; in [16], 23 M⁻¹ s⁻¹; in data set [17], 200 M⁻¹ s⁻¹. The FXa kcat/KM worked out at 150 M⁻¹ s⁻¹ in data set [18]; 140 M⁻¹ s⁻¹ in data set [19]; 2600 M⁻¹ s⁻¹ in data set [20]; 990 M⁻¹ s⁻¹ in data set [21]; 6.3 M⁻¹ s⁻¹ in data set [22]; 34 M⁻¹ s⁻¹ in data set [23]. Further, the FXa kcat/KM amounted to 13 M⁻¹ s⁻¹ in data set [24]; 96 M⁻¹ s⁻¹ in [25]; 100 M⁻¹ s⁻¹ in [26]; 140 M⁻¹ s⁻¹ in [27]; 2400 M⁻¹ s⁻¹ in data set [28]; 11 M⁻¹ s⁻¹ in data set [29]. Also, the FXa kcat/KM in data set [30] worked out at 14 M⁻¹ s⁻¹; in data set [31], 430 M⁻¹ s⁻¹; in data set [32], 73 M⁻¹ s⁻¹; in data set [33], 140 M⁻¹ s⁻¹; in data set [34], 730 M⁻¹ s⁻¹; in data set [35] it was 70 M⁻¹ s⁻¹. In addition, the FXa kcat/KM in data set [36] was 38 M⁻¹ s⁻¹; in data set [37], 410 M⁻¹ s⁻¹; in data set [38] it was 140 M⁻¹ s⁻¹; in data set [39], 460 M⁻¹ s⁻¹; in data set [40], 2000 M⁻¹ s⁻¹; in data set [41], 38 M⁻¹ s⁻¹.
